Measurements taken from patent US20200299408A1 (Genentech, published 2020).
Several values for one entry are separate records, joined by “and”; a condition that tells them apart may be missing. Identical values can stand only once.

T1: single chain human CD3ε-26mer-CD3γ (CD3εγ) (human)
T1 construct: also called human CD3εγ
T1 chain: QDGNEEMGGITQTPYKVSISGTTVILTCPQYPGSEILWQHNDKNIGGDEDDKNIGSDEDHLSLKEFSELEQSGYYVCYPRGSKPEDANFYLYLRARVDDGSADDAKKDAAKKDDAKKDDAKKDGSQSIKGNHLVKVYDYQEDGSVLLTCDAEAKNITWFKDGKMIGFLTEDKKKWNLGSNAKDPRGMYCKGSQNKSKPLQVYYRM


Key:
[1] = molecular target: T1, single chain human CD3ε-26mer-CD3γ …; experiment: Biacore, human CD3εγ on chip, TDB in flow through
Method: (§1) Binding affinities for the each of the CD3/CD20 TDBs were tested by Biacore or FACS analysis, as described above for the anti-CD3 antibodies. Briefly, for Biacore binding assays, human CD3εγ was immobilized on Biacore Series S CM5 sensor chip using the amine coupling kit from Biacore and CD3/CD20 TDBs or Fab variants thereof were in the flow through. For FACS binding assays, either Bjab cells (for B cell antigens) or Jurkat cells (for CD3 antigen) were incubated with various concentrations of TDB antibodies at 4° C. for 30 minutes, then cells were washed and incubated with 2nd antibody (anti-huIgG-PE; BD Bioscience) for another 15 minutes, before cells were washed again and ready for FACS analysis.

human CD3 on T cells = molecular target: T2, human CD3 on T cells (human, UniProt P07766 22-207); experiment: FACS on Jurkat cells (CD3); EC50 table for the curves of FIGS. 21A-21B; source CHO (N297G)
T2 construct: whole, on cells; On cells CD3ε stands in the CD3/TCR complex; also called CD3 antigen; CD3ε
Method: as §1

[2] = molecular target: CD3 antigen of Figures 3B and 3C (not named); experiment: kinetic table of IgGs; method and antigen not stated

Row | Binder | Kd [1] | koff [1] | kon [1] | EC50 (human CD3 on T cells) | Kd [2] | koff [2] | kon [2]
1 | 38E4v4 CHO (bispecific antibody, also called CD3/CD20 TDB 2H7v16/38E4v4) anti-CD20 arm heavy chain: EVQLVESGGGLVQPGGSLRLSCAASGYTFTSYNMHWVRQAPGKGLEWVGAIYPGNGDTSYNQKFKGRFTISVDKSKNTLYLQMNSLRAEDTAVYYCARVVYYSNSYWYFDVWGQGTLVTVSS anti-CD20 arm light chain: DIQMTQSPSSLSASVGDRVTITCRASSSVSYMHWYQQKPGKAPKPLIYAPSNLASGVPSRFSGSGSGTDFTLTISSLQPEDFATYYCQQWSFNPPTFGQGTKVEIK anti-CD3 arm heavy chain: EVQLVQSGAEVKKPGASVKVSCKASGFTFTSYYIHWVRQAPGQGLEWIGWIYPENDNTKYNEKFKDRVTITADTSTSTAYLELSSLRSEDTAVYYCARDGYSRYYFDYWGQGTLVTVSS anti-CD3 arm light chain: DIVMTQSPDSLAVSLGERATINCKSSQSLLNSRTRKNYLAWYQQKPGQSPKLLIYWTSTRKSGVPDRFSGSGSGTDFTLTISSLQAEDVAVYYCKASFILRTFGQGTKVEIK | 137 nM and 136 nM | 0.0984 s⁻¹ | 721000 M⁻¹ s⁻¹ | 3.51 µg/mL and ~23 nM | – | – | –
2 | 38E4v5 CHO (bispecific antibody, also called CD3/CD20 TDB 2H7v16/38E4v5) anti-CD20 arm heavy chain: EVQLVESGGGLVQPGGSLRLSCAASGYTFTSYNMHWVRQAPGKGLEWVGAIYPGNGDTSYNQKFKGRFTISVDKSKNTLYLQMNSLRAEDTAVYYCARVVYYSNSYWYFDVWGQGTLVTVSS anti-CD20 arm light chain: DIQMTQSPSSLSASVGDRVTITCRASSSVSYMHWYQQKPGKAPKPLIYAPSNLASGVPSRFSGSGSGTDFTLTISSLQPEDFATYYCQQWSFNPPTFGQGTKVEIK anti-CD3 arm heavy chain: EVQLVQSGAEVKKPGASVKVSCKASGFTFTSYYIHWVRQAPGQGLEWIGWIYPENDNTKYNEKFKDRVTITADTSTSTAYLELSSLRSEDTAVYYCARDGYSRYYFDYWGQGTLVTVSS anti-CD3 arm light chain: DIVMTQSPDSLAVSLGERATINCKSSQSLLNSRTRKNYLAWYQQKPGQSPKLLIYWTSTRKSGVPDRFSGSGSGTDFTLTISSLQAEDVAVYYCKQSAILRTFGQGTKVEIK | 16 nM | 0.0515 s⁻¹ | 3.22e+06 M⁻¹ s⁻¹ | 4.11 µg/mL and ~27 nM | – | – | –
3 | 38E4v8 CHO (bispecific antibody, also called CD3/CD20 TDB 2H7v16/38E4v8) anti-CD20 arm heavy chain: EVQLVESGGGLVQPGGSLRLSCAASGYTFTSYNMHWVRQAPGKGLEWVGAIYPGNGDTSYNQKFKGRFTISVDKSKNTLYLQMNSLRAEDTAVYYCARVVYYSNSYWYFDVWGQGTLVTVSS anti-CD20 arm light chain: DIQMTQSPSSLSASVGDRVTITCRASSSVSYMHWYQQKPGKAPKPLIYAPSNLASGVPSRFSGSGSGTDFTLTISSLQPEDFATYYCQQWSFNPPTFGQGTKVEIK anti-CD3 arm heavy chain: EVQLVQSGAEVKKPGASVKVSCKASGFTFTSYYIHWVRQAPGQGLEWIGWIYPENDNTKYNEKFKDRVTITADTSTSTAYLELSSLRSEDTAVYYCARSGYSRYYFDYWGQGTLVTVSS anti-CD3 arm light chain: DIVMTQSPDSLAVSLGERATINCKSSQSLLNSRTRKNYLAWYQQKPGQSPKLLIYWTSTRKSGVPDRFSGSGSGTDFTLTISSLQAEDVAVYYCKQSFILRTFGQGTKVEIK | 3930 nM | 0.0443 s⁻¹ | 11300 M⁻¹ s⁻¹ | 7.23 µg/mL and ~47 nM | – | – | –
4 | 38E4v6 CHO (bispecific antibody, also called CD3/CD20 TDB 2H7v16/38E4v6) anti-CD20 arm heavy chain: EVQLVESGGGLVQPGGSLRLSCAASGYTFTSYNMHWVRQAPGKGLEWVGAIYPGNGDTSYNQKFKGRFTISVDKSKNTLYLQMNSLRAEDTAVYYCARVVYYSNSYWYFDVWGQGTLVTVSS anti-CD20 arm light chain: DIQMTQSPSSLSASVGDRVTITCRASSSVSYMHWYQQKPGKAPKPLIYAPSNLASGVPSRFSGSGSGTDFTLTISSLQPEDFATYYCQQWSFNPPTFGQGTKVEIK anti-CD3 arm heavy chain: EVQLVQSGAEVKKPGASVKVSCKASGFTFTSYYIHWVRQAPGQGLEWIGWIYPENDNTKYNEKFKDRVTITADTSTSTAYLELSSLRSEDTAVYYCARTGYSRYYFDYWGQGTLVTVSS anti-CD3 arm light chain: DIVMTQSPDSLAVSLGERATINCKSSQSLLNSRTRKNYLAWYQQKPGQSPKLLIYWTSTRKSGVPDRFSGSGSGTDFTLTISSLQAEDVAVYYCKQSFILRTFGQGTKVEIK | 37600 nM | 0.878 s⁻¹ | 23400 M⁻¹ s⁻¹ | 5.56 µg/mL and ~36 nM | – | – | –
5 | 38E4v7 CHO (bispecific antibody, also called CD3/CD20 TDB 2H7v16/38E4v7) anti-CD20 arm heavy chain: EVQLVESGGGLVQPGGSLRLSCAASGYTFTSYNMHWVRQAPGKGLEWVGAIYPGNGDTSYNQKFKGRFTISVDKSKNTLYLQMNSLRAEDTAVYYCARVVYYSNSYWYFDVWGQGTLVTVSS anti-CD20 arm light chain: DIQMTQSPSSLSASVGDRVTITCRASSSVSYMHWYQQKPGKAPKPLIYAPSNLASGVPSRFSGSGSGTDFTLTISSLQPEDFATYYCQQWSFNPPTFGQGTKVEIK anti-CD3 arm heavy chain: EVQLVQSGAEVKKPGASVKVSCKASGFTFTSYYIHWVRQAPGQGLEWIGWIYPENDNTKYNEKFKDRVTITADTSTSTAYLELSSLRSEDTAVYYCARDGYSRYAFDYWGQGTLVTVSS anti-CD3 arm light chain: DIVMTQSPDSLAVSLGERATINCKSSQSLLNSRTRKNYLAWYQQKPGQSPKLLIYWTSTRKSGVPDRFSGSGSGTDFTLTISSLQAEDVAVYYCKQSFILRTFGQGTKVEIK | 254 nM | 0.29 s⁻¹ | 1.14e+06 M⁻¹ s⁻¹ | 22.6 µg/mL and ~147 nM | – | – | –

Next, values leading:

Row | Kd [1] | koff [1] | kon [1] | EC50 (human CD3 on T cells) | Kd [2] | koff [2] | kon [2] | Binder
6 | 51.5 nM | 0.0307 s⁻¹ | 597000 M⁻¹ s⁻¹ | 2.01 µg/mL and ~13 nM | – | – | – | 40G5c CHO (bispecific antibody, V domains shown, CHO-produced full-length knob-into-hole IgG with N297G in the Fc; constant regions are not in the letters., CHO material; also called CD3/CD20 TDB 2H7v16/40G5c produced in CHO, N297G) VH 1: EVQLVESGGGLVQPGGSLRLSCAASGYTFTSYNMHWVRQAPGKGLEWVGAIYPGNGDTSYNQKFKGRFTISVDKSKNTLYLQMNSLRAEDTAVYYCARVVYYSNSYWYFDVWGQGTLVTVSS VL 1: DIQMTQSPSSLSASVGDRVTITCRASSSVSYMHWYQQKPGKAPKPLIYAPSNLASGVPSRFSGSGSGTDFTLTISSLQPEDFATYYCQQWSFNPPTFGQGTKVEIK VH 2: EVQLVQSGAEVKKPGASVKVSCKASGYTFTNYYIHWVRQAPGQGLEWIGWIYPGDGNTKYNEKFKGRATLTADTSTSTAYLELSSLRSEDTAVYYCARDSYSNYYFDYWGQGTLVTVSS VL 2: DIVMTQSPDSLAVSLGERATINCKSSQSLLNSRTRKNYLAWYQQKPGQPPKLLIYWASTRESGVPDRFSGSGSGTDFTLTISSLQAEDVAVYYCTQSFILRTFGQGTKVEIK
7 | 64200 nM | 1.02 s⁻¹ | 15900 M⁻¹ s⁻¹ | 15 µg/mL and ~97 nM | – | – | – | 38E4v9 CHO (bispecific antibody, also called CD3/CD20 TDB 2H7v16/38E4v9) anti-CD20 arm heavy chain: EVQLVESGGGLVQPGGSLRLSCAASGYTFTSYNMHWVRQAPGKGLEWVGAIYPGNGDTSYNQKFKGRFTISVDKSKNTLYLQMNSLRAEDTAVYYCARVVYYSNSYWYFDVWGQGTLVTVSS anti-CD20 arm light chain: DIQMTQSPSSLSASVGDRVTITCRASSSVSYMHWYQQKPGKAPKPLIYAPSNLASGVPSRFSGSGSGTDFTLTISSLQPEDFATYYCQQWSFNPPTFGQGTKVEIK anti-CD3 arm heavy chain: EVQLVQSGAEVKKPGASVKVSCKASGFTFTSYYIHWVRQAPGQGLEWIGWIYPENDNTKYNEKFKDRVTITADTSTSTAYLELSSLRSEDTAVYYCARDGYSRAYFDYWGQGTLVTVSS anti-CD3 arm light chain: DIVMTQSPDSLAVSLGERATINCKSSQSLLNSRTRKNYLAWYQQKPGQSPKLLIYWTSTRKSGVPDRFSGSGSGTDFTLTISSLQAEDVAVYYCKQSFILRTFGQGTKVEIK
8 | – | – | – | – | 8.46 nM | 0.000242 s⁻¹ | 28600 M⁻¹ s⁻¹ | Rab17 (antibody, rabbit IgG1, V domains shown, clone from the rabbit immunization) VH: QSVKESEGGLFKPTDTLTLTCTVSGCSLSSCAISWVRQAPGKGLEWIGFMSVTGSAYYANWAKSRSTITRNTNENTVTLKMTRLTAADTAIYFCARVGIGSGLNIWG VL: DMTQTPSSKSVPVGDTVTINCQASETVYSNNYLAWFQQKPGQPPKRLIYGVSTLDSGVPPRFSGSGSGTQFTLTISDVVCDDAATYYCAGYKTSSSYAIAFGGGTELEIL
